Here are results for eight molecules from patent US20250382359A1 (BYOMASS, published 2025).

Changes are numbered by the printed parent chain.

The labels stand for the following.
B1: GDF15 antibody agent Clone A, IgG (antibody, V domains shown)
VH: QVQLQESGPGLVKPSQTLSLTCTVSGGSITSGGSYWSWIRQHPGKGLEWIGAIVYSGSTYYNPSLKSRVTISVDTSKNQFSLKLSSVTAADTAVYYCARGVEYQHFDYWGQGTLVTVSS
VL: not shown
B2: GDF15 antibody agent Clone C, IgG (antibody, V domains shown)
VH: B1 VH with T30S, S34Y, S58H, D107S, Y108L
VL: not shown
B3: GDF15 antibody agent Clone D, IgG (antibody, V domains shown)
VH: B1 VH with T30N, S34Y, S37T, V54Y, Y60V, D107N, Y108E
VL: not shown
B4: GDF15 antibody agent Clone K, IgG (antibody, V domains shown)
VH: QVQLVQSGAEVKKPGASVKVSCKASGYTFTNEGISWVRQAPGQGLEWMGWISAYTADTFYAQKLQGRVTMTTDTSTSTAYMELRSLRSDDTAVYYCARTRHDTSGLRFDYWGQGTLVTVSS
VL: DIQMTQSPSSVSASVGDRVTITCRASQGIDSWLAWYQQKPGKAPKLLIYAASSLQSGVPSRFSGSGSGTDFTLTISSLQPEDFATYYCQQVHSFPITFGGGTKVEIKR
B5: GDF15 antibody agent Clone L, IgG (antibody, V domains shown)
VH: B4 VH with T30A, N31S, E32Y, G33D, S35I, Y54L, T55S, A56G, F59V, L106I
VL: B4 VL
B6: GDF15 antibody agent Clone G, IgG (antibody, V domains shown)
VH: QVQLVQSGAEVKKPGSSVKVSCKASGGTFQGYAISWARQAPGQGLEWMGGIIPPYATANYAQKFQGRVTITADESTSTAYMELSSLRSEDTAVYYCARGVGELHLDVWGQGTMVTVSS
VL: not shown
B7: GDF15 antibody agent Clone M, IgG (antibody, V domains shown)
VH: QVQLVQSGAEVKKPGASVKVSCKASGYTFDSYGINWVRQAPGQGLEWMGWISAYSGDTAYAQELQGRVTMTTDTSTSTAYMELRSLRSDDTAVYYCVRDTQYGGSPYWGQGTLVTVSS
VL: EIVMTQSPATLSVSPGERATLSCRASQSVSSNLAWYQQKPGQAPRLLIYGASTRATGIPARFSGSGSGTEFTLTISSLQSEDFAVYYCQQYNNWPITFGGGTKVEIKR
B8: GDF15 antibody agent Clone N, IgG (antibody, V domains shown)
VH: B7 VH with D30T, S31D, N35F, S52T, A59H, E63K
VL: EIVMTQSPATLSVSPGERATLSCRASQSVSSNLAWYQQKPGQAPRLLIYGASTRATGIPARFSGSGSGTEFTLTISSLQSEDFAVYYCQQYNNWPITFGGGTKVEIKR

For the first experiment, the target named is T1, GDF15 (ligand used in the GFRAL/RET cell assays) (UniProt Q99988 197-308, limits assumed).
T1 sequence (looked up): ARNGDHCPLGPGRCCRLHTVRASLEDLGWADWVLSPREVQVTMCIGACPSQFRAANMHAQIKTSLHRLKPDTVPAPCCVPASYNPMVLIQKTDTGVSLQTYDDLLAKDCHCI
Description: cell-based or functional assay.
On to B1, for which the “GDF15-GFRAL RET pERK IC50 (pM)” value came out at 102 pM and the “GDF15-GFRAL-RET Luciferase IC50 (pM)” value amounted to 75 pM.
For B2, in that order: 145 pM and 39.6 pM.
For B3, the “GDF15-GFRAL RET pERK IC50 (pM)” value stood at 50.4 pM and the “GDF15-GFRAL-RET Luciferase IC50 (pM)” value was determined as 58.7 pM.
Consider B4, for which the “GDF15-GFRAL RET pERK IC50 (pM)” value was 187 pM and the “GDF15-GFRAL-RET Luciferase IC50 (pM)” value amounted to 813 pM.
As for B5, the “GDF15-GFRAL RET pERK IC50 (pM)” value amounted to 13.5 pM and the “GDF15-GFRAL-RET Luciferase IC50 (pM)” value turned out to be 274 pM.
For B6, in that order: 66.7 pM and 97.1 pM.
For B7, the “GDF15-GFRAL RET pERK IC50 (pM)” value stood at 88.7 pM.
As for B8, the “GDF15-GFRAL RET pERK IC50 (pM)” value came out at 99.7 pM.

A further experiment has as its target T2, Human BMP9 (human, UniProt Q9UK05 320-429).
T2 sequence (looked up): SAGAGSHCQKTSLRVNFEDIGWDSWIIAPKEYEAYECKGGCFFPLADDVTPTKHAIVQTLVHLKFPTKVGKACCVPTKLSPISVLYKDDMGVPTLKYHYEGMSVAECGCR
Description: BLI Octet; IgG on sensor. (In general: Biolayer interferometry detects binding as a change in optical thickness at a sensor tip.)
For the molecule B4, the binding result is “no binding (tested: 100 nM)”.
On the same count and under the same terms, with B5 the entry was “no binding (tested: 100 nM)”; with B7, “no binding (tested: 100 nM)”; with B8, “no binding (tested: 100 nM)”.

The target in a further experiment is T3, GDNF (UniProt P39905 78-211).
T3 sequence (looked up): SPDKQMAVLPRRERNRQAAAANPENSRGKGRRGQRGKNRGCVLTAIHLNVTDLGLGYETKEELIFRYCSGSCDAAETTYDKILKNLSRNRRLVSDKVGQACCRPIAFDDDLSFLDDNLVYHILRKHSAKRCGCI
Description: BLI Octet; IgG on sensor.
Turning to B1, the binding result is on record as “no binding (tested: 100 nM)”.
As for B2, the binding result was “no binding (tested: 100 nM)”.
B3: the binding result is listed as “no binding (tested: 100 nM)”.
B6: the binding result is “no binding (tested: 100 nM)”.

Another experiment addresses T4, GDF10 (UniProt P55107 369-478).
T4 sequence (looked up): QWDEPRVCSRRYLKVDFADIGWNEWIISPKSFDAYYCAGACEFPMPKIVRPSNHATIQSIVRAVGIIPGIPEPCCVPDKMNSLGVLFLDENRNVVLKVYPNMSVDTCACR
Description: BLI Octet; IgG on sensor.
Take B4: the binding result was “no binding (tested: 100 nM)”.
The same measure, in the same setting: the result for B5 reads “no binding (tested: 100 nM)”; that for B7, “no binding (tested: 100 nM)”; that for B8, “no binding (tested: 100 nM)”.

In the next experiment the target is GDF8 (UniProt O14793 267-375). Description: BLI Octet; IgG on sensor.
Turning to B1, the binding result is given as “no binding (tested: 100 nM)”.
For the molecule B2, the binding result is reported as “no binding (tested: 100 nM)”.
Regarding B3, the binding result is listed as “no binding (tested: 100 nM)”.
On the same count and under the same terms, with B4 the entry was “no binding (tested: 100 nM)”; with B5, “no binding (tested: 100 nM)”; with B6, “no binding (tested: 100 nM)”.
On to B7, for which the binding result is “no binding (tested: 100 nM)”.
B8: the binding result is on record as “no binding (tested: 100 nM)”.

For another experiment, the target named is T5, Human Activin B (human, UniProt P09529 293-407).
T5 sequence (looked up): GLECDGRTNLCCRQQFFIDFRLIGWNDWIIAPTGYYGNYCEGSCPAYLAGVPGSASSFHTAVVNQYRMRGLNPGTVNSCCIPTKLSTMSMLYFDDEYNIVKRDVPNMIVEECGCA
Briefly: BLI Octet; IgG on sensor.
As to B1, the binding result is listed as “no binding (tested: 100 nM)”.
As to B3, the binding result is recorded as “no binding (tested: 100 nM)”.
As for B4, the binding result is “no binding (tested: 100 nM)”.
For the molecule B5, the binding result is given as “no binding (tested: 100 nM)”.
On the same count and under the same terms, the result for B6 reads “no binding (tested: 100 nM)”; that for B7, “no binding (tested: 100 nM)”; that for B8, “no binding (tested: 100 nM)”.

In a further experiment the target is T6, GDF11 (UniProt O95390 299-407).
T6 construct: Also used as ligand in the Activin 2B receptor/SMAD reporter assay
T6 sequence (O95390 299-407 limits assumed): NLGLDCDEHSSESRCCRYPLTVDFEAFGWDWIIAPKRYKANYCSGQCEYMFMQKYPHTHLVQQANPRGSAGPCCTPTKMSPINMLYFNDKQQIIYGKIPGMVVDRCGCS
Description: BLI Octet; IgG on sensor.
Regarding B1, the binding result is “no binding (tested: 100 nM)”.
In the case of B2, the binding result is “no binding (tested: 100 nM)”.
Consider B3, for which the binding result is “no binding (tested: 100 nM)”.
For the molecule B4, the binding result is reported as “no binding (tested: 100 nM)”.
On to B5, for which the binding result was “no binding (tested: 100 nM)”.
Take B6: the binding result is “no binding (tested: 100 nM)”.
For B7, the binding result is on record as “no binding (tested: 100 nM)”.
As for B8, the binding result was “no binding (tested: 100 nM)”.

A further experiment addresses T7, Human BMP10 (human, UniProt O95393 317-424).
T7 sequence (looked up): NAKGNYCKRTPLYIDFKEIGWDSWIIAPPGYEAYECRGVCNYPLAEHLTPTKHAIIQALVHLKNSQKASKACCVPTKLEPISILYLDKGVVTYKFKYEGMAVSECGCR
Briefly: BLI Octet; IgG on sensor.
With B2, the binding result was “no binding (tested: 100 nM)”.
Consider B3, for which the binding result was “no binding (tested: 100 nM)”.
In the case of B4, the binding result is recorded as “no binding (tested: 100 nM)”.
Consider B5, for which the binding result is on record as “no binding (tested: 100 nM)”.
Take B7: the binding result was “no binding (tested: 100 nM)”.
Same read-out and setting: the result for B8 reads “no binding (tested: 100 nM)”.

A further experiment deals with T8, Human Activin A Fc (human, UniProt P08476 311-426).
T8 construct: not shown: Fc part
T8 sequence (looked up): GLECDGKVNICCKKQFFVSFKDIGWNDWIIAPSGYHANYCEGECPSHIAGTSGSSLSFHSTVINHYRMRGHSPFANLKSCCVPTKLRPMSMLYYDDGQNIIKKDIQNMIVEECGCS
Briefly: BLI Octet; IgG on sensor.
Consider B4, for which the binding result was “no binding (tested: 100 nM)”.
Consider B5, for which the binding result is “no binding (tested: 100 nM)”.
On the same count and under the same terms, the result for B6 reads “no binding (tested: 100 nM)”; that for B7, “no binding (tested: 100 nM)”; that for B8, “no binding (tested: 100 nM)”.

In a further experiment the target is T9, Human GDF15 Fc (human, UniProt Q99988 195-308, limits assumed, biotinylated (EZ-Link Sulfo-NHS-Biotinylation Kit) in the SPR assay).
T9 construct: also called human GDF15-Fc fusion; biotinylated Human GDF15 Fc; not shown: Fc part
T9 sequence: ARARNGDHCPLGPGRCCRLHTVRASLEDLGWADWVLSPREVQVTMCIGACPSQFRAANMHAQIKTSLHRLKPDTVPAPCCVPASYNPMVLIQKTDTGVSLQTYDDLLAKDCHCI
Briefly: BLI Octet; IgG on sensor, 100 nM antigen (avid). On the procedure:
Briefly, ForteBio affinity measurements were performed by loading IgGs on-line onto AHC sensors. Sensors were equilibrated off-line in assay buffer for 30 min and then monitored on-line for 60 seconds for baseline establishment. Sensors with loaded IgGs were exposed to 100 nM antigen for 3 minutes, and afterwards were transferred to assay buffer for 3 min for off-rate measurement. All kinetics were analyzed using the 1:1 binding model.
One may read the Kd as a measure of binding affinity in units of concentration. A high value points to weaker binding. In turn, B1 returned a Kd of 0.263 nM.
B2 yielded an equilibrium dissociation constant (Kd) of 0.254 nM.
B3 yielded a Kd of 0.263 nM. This Kd and that of the molecule before are within 1.5-fold of each other.
The molecule B4 yielded a Kd of 0.271 nM.
Molecule B5 displayed a dissociation constant (Kd) of 0.325 nM.
In the case of B6, the affinity, expressed as Kd, was 0.256 nM.
On the same count and under the same terms, with B7 the figure was 0.317 nM.
Regarding B8, the Kd stood at 0.336 nM.

The target in a further experiment is T2, Human BMP9. Description: BLI Octet; IgG on sensor, 100 nM antigen (avid).
Take B1: the binding result is given as “binds”.
The same measure, in the same setting: with B2 the entry was “binds”.
As for B3, the binding result is given as “binds”.
Consider B6, for which the binding result is “binds”.

For a further experiment, the target named is T3, GDNF. Briefly: BLI Octet; IgG on sensor, 100 nM antigen (avid).
The molecule B4 registered an equilibrium dissociation constant (Kd) of 333 nM.
With B5, the equilibrium dissociation constant (Kd) is 229 nM.
B7 came in with a Kd of 31.4 nM. Compared with the last molecule, the Kd is about 7.3-fold lower.
B8 registered a dissociation constant Kd of 2.56 nM. Compared with the last molecule, the Kd is about 12-fold lower.

In another experiment the target is T4, GDF10. Briefly: BLI Octet; IgG on sensor, 100 nM antigen (avid).
For B6, binding was characterised by a dissociation constant (Kd) of 36.8 nM.

A further experiment has as its target T5, Human Activin B. Description: BLI Octet; IgG on sensor, 100 nM antigen (avid).
Regarding B2, the dissociation constant (Kd) was 132 nM.

For the next experiment, the target named is T7, Human BMP10. Description: BLI Octet; IgG on sensor, 100 nM antigen (avid).
As to B1, the binding result was “binds”.
For B6, the binding result was “binds”.

The target of another experiment is T8, Human Activin A Fc. Description: BLI Octet; IgG on sensor, 100 nM antigen (avid).
The molecule B1 showed a Kd of 7.34 nM.
B2 displayed a Kd of 6.48 nM.
Consider B3, for which the affinity, expressed as Kd, was 7.87 nM.
